These results are taken from patent US20020055130A1, “Method and product for regulating apoptosis” (National Jewish Center for Immunology and Respiratory …, priority 1997, published 2002).

The assay deals with JNK kinase/SEK-1 (endogenous, Swiss 3T3 cells) (UniProt P47809). As to the kind of experiment: cell-based or functional assay.
Chain of JNK kinase/SEK-1 (endogenous, Swiss 3T3 cells) (P47809 2-397 limits assumed): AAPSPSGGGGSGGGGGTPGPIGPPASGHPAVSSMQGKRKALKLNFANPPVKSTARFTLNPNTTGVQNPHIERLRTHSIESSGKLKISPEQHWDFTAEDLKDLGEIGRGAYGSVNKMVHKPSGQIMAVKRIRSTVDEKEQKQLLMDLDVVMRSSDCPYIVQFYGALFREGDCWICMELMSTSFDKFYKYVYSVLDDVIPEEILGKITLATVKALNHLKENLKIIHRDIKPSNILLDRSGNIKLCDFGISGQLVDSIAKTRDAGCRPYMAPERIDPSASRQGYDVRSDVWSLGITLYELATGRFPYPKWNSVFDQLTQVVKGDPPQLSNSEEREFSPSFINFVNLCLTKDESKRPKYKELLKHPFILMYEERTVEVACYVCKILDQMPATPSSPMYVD

In turn, “competitive inhibitory JNK/SAPK mutant JNK/SAPK(APF)” had an inhibition of Gal4/Jun activation in response to MEKKCOOH (luciferase reporter, transient transfection) of 65%.
